Assay results as given in the supplement of paper PMC10567573.

B1: ZNF263 (parent)
chain: EKPYKCPECGEIFAHSSNLLRHQR
B2: GFOD1 (parent)
chain: EEAEELAKEMSVPFYTSRIDEVLL

Variants of: B1
Assay: protein stability index of a GFP-peptide fusion (GPS, HEK-293T) (PSI 1-6); higher = more stable
Conditions: c terminus: a fixed tail appended
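Note: lentivirally expressed fusions sorted by FACS into six bins by GFP to DsRed ratio, PSI derived from sequencing read proportions per bin multiplied by bin number.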

Variant | protein stability index
EKPYKCPECGEIFAHSSNLLRQQR [H22Q] | 1.54
EKPYKCPECGEIFAHSSNLLREQR [H22E] | 2.55
EKPYKCPECGEIFAHSSNLLRAQR [H22A] | 2.88
EKPYKCPECGEIFAHSSNLLRSQR [H22S] | 1.89
EKPYKCPECGEIFAHSSNLLRLQR [H22L] | 1.91
EKPYKCPECGEIFAHSSNLLRMQR [H22M] | 2.64
EKPYKCPECGEIFAHSSNLLRIQR [H22I] | 1.34
EKPYKCPECGEIFAHSSNLLRPQR [H22P] | 1.35
EKPYKCPECGEIFAHSSNLLRWQR [H22W] | 1.23
EKPYKCPECGEIFAHSSNLLRFQR [H22F] | 1.66
EKPYKCPECGEIFAHSSNLLRCQR [H22C] | 2.43
EKPYKCPECGEIFAHSANLLRHQR [S17A] | 2.43
EKPYKCPECGEIFAHSTNLLRHQR [S17T] | 2.06
EKPYKCPECGEIFAHSRNLLRHQR [S17R] | 2.42
EKPYKCPECGEIFAHSCNLLRHQR [S17C] | 4.32
EKPYKCPECGEIFAHSWNLLRHQR [S17W] | 2.24
EKPYKCPECGEIFAHSVNLLRHQR [S17V] | 2.08
EKPYKCPECGEIFAHSGNLLRHQR [S17G] | 2.63
EKPYKCPECGEIFAHSINLLRHQR [S17I] | 2.89
EKPYKCPECGEIFAHSNNLLRHQR [S17N] | 2.75
EKPYKCPECGEIFAHSYNLLRHQR [S17Y] | 2.47
EKPYKCPECGEIFAHSPNLLRHQR [S17P] | 2.66
EKPYKCPECGEIFAHSLNLLRHQR [S17L] | 2.79
EKPYKCPECGEIFAHSFNLLRHQR [S17F] | 2.85
EKPYKCPECGEIFAHSENLLRHQR [S17E] | 4.22
EKPYKCPECGEIFAHSHNLLRHQR [S17H] | 3.51
EKPYKCPECGEIFAHSQNLLRHQR [S17Q] | 1.98

Variant | protein stability index
EKPYKCPECGEIFAHSMNLLRHQR [S17M] | 2.12
EKPYKCPECGEIFAHSDNLLRHQR [S17D] | 3.33
EKPYKCPECGEIFAHSSNLLRHHR [Q23H] | 2.34
EKPYKCPECGEIFAHSSNLLRHER [Q23E] | 2.48
EKPYKCPECGEIFAHSSNLLRHDR [Q23D] | 1.82
EKPYKCPECGEIFAHSSNLLRHKR [Q23K] | 2.9
EKPYKCPECGEIFAHSSNLLRHGR [Q23G] | 1.82
EKPYKCPECGEIFAHSSNLLRHVR [Q23V] | 1.82
EKPYKCPECGEIFAHSSNLLRHYR [Q23Y] | 2.07
EKPYKCPECGEIFAHSSNLLRHMR [Q23M] | 3.02
EKPYKCPECGEIFAHSSNLLRHCR [Q23C] | 2.41
EKPYKCPECGEIFAHSSNLLRHNR [Q23N] | 2.88
EKPYKCPECGEIFAHSSNLLRHLR [Q23L] | 2.86
EKPYKCPECGEIFAHSSNLLRHWR [Q23W] | 2.42
EKPYKCPECGEIFAHSSNLLRHPR [Q23P] | 2.11
EKPYKCPECGEIFAHSSNLLRHIR [Q23I] | 3.16
EKPYKCPECGEIFAHSSNLLRHTR [Q23T] | 2.25
EKPYKCPECGEIFAHSSNLLRHAR [Q23A] | 2.21
EKPYKCPECGEIFAHSSNLLRHFR [Q23F] | 2.35
EKPYKCPECGEIFAHSSDLLRHQR [N18D] | 4.05
EKPYKCPECGEIFAHSSTLLRHQR [N18T] | 2.76
EKPYKCPECGEIFAHSSVLLRHQR [N18V] | 4.54
EKPYKCPECGEIFAHSSSLLRHQR [N18S] | 4.02
EKPYKCPECGEIFAHSSLLLRHQR [N18L] | 2.67
EKPYKCPECGEIFAHSSELLRHQR [N18E] | 4.7
EKPYKCPECGEIFAHSSWLLRHQR [N18W] | 2.06
EKPYKCPECGEIFAHSSYLLRHQR [N18Y] | 3.37

Variant | protein stability index
EKPYKCPECGEIFAHSSGLLRHQR [N18G] | 3.05
EKPYKCPECGEIFAHSSHLLRHQR [N18H] | 4.44
EKPYKCPECGEIFAHSSMLLRHQR [N18M] | 2.82
EKPYKCPECGEIFAHSSILLRHQR [N18I] | 2.37
EKPYKCPECGEIFAHSSFLLRHQR [N18F] | 2.54
EKPYKCPECGEIFAHSSPLLRHQR [N18P] | 2.55
EKPYKCPECGEIFAHSSCLLRHQR [N18C] | 3.75
EKPYKCPECGEIFAHSSALLRHQR [N18A] | 4.13
EKPYKCPECGEIFAHSSNLHRHQR [L20H] | 3.79
EKPYKCPECGEIFAHSSNLERHQR [L20E] | 2.75
EKPYKCPECGEIFAHSSNLTRHQR [L20T] | 2.66
EKPYKCPECGEIFAHSSNLDRHQR [L20D] | 3.29
EKPYKCPECGEIFAHSSNLVRHQR [L20V] | 1.87
EKPYKCPECGEIFAHSSNLCRHQR [L20C] | 4.11
EKPYKCPECGEIFAHSSNLQRHQR [L20Q] | 2.96
EKPYKCPECGEIFAHSSNLMRHQR [L20M] | 2.6
EKPYKCPECGEIFAHSSNLYRHQR [L20Y] | 2.44
EKPYKCPECGEIFAHSSNLGRHQR [L20G] | 2.29
EKPYKCPECGEIFAHSSNLARHQR [L20A] | 1.79
EKPYKCPECGEIFAHSSNLPRHQR [L20P] | 1.84
EKPYKCPECGEIFAHSSNLIRHQR [L20I] | 2.04
EKPYKCPECGEIFAHSSNLNRHQR [L20N] | 1.59
EKPYKCPECGEIFAHSSNLKRHQR [L20K] | 2.62
EKPYKCPECGEIFAHSSNLRRHQR [L20R] | 2.59
EKPYKCPECGEIFAHSSNLFRHQR [L20F] | 1.78

Variants of: B2
Assay: as above
Conditions: c terminus: a fixed tail appended

Variant | protein stability index
EEAEELAKEMSVPFYTSMIDEVLL [R18M] | 3.43
EEAEELAKEMSVPFYTSRIDEVWL [L23W] | 3.02
EEAEELAKEMSVPFYTSRIDEVNL [L23N] | 4.21
EEAEELAKEMSVPFYTSRIDEVQL [L23Q] | 4.72
EEAEGLAKEMSVPFYTSRIDEVLL [E5G] | 4.04
EEAEILAKEMSVPFYTSRIDEVLL [E5I] | 2.57
EEAEELAKEMCVPFYTSRIDEVLL [S11C] | 3.36
EEAEELAKHMSVPFYTSRIDEVLL [E9H] | 3.2
EEAEELAKEMSVPEYTSRIDEVLL [F14E] | 4.4
EEAEELAKEMSVPMYTSRIDEVLL [F14M] | 3.83
EEAEELAKEMSVPFNTSRIDEVLL [Y15N] | 4.83
EEAEELAKEMSVPFYTSRIDCVLL [E21C] | 1.97
KEAEELAKEMSVPFYTSRIDEVLL [E1K] | 4.03
ETAEELAKEMSVPFYTSRIDEVLL [E2T] | 3.2
EEAEELAKEMSVPFYTSRIVEVLL [D20V] | 2.08
